From patent US20240415884A1 (UNIVERSITY OF PITTSBURGH OF THE COMMONWEALTH SYSTEM OF …, published 2024) come the findings set out here.

Assay [1] concerns the target T1, human CD276 polypeptide (antigen of the ELISA of Clones #1-#8) (human, UniProt Q5ZPR3 29-461, limits assumed).
T1 construct: For panning it was fused at its C-terminus to human IgG1 Fc (CD276-Fc); also called B7-H3
T1 sequence: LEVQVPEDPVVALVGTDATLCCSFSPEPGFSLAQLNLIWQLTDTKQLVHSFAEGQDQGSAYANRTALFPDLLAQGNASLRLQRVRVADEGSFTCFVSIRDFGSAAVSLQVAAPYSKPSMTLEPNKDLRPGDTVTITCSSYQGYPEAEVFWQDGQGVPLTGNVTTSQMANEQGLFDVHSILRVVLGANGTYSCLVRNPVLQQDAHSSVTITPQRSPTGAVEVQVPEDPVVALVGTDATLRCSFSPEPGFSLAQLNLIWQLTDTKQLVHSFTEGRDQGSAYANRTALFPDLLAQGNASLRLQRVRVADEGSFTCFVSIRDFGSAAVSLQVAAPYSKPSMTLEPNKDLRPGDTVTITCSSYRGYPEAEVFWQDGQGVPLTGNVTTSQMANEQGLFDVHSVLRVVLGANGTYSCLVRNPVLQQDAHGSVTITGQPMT
The experiment in a line: ELISA on a human CD276 polypeptide. (ELISA stands for enzyme-linked immunosorbent assay.)

In assay [2] the target is T2, recombinant CD276 polypeptide that included four Ig-like extracellular domains (human, UniProt Q5ZPR3 29-466).
T2 construct: extracellular domain; also called 4Ig CD276 polypeptide; a CD276 polypeptide
T2 sequence (looked up): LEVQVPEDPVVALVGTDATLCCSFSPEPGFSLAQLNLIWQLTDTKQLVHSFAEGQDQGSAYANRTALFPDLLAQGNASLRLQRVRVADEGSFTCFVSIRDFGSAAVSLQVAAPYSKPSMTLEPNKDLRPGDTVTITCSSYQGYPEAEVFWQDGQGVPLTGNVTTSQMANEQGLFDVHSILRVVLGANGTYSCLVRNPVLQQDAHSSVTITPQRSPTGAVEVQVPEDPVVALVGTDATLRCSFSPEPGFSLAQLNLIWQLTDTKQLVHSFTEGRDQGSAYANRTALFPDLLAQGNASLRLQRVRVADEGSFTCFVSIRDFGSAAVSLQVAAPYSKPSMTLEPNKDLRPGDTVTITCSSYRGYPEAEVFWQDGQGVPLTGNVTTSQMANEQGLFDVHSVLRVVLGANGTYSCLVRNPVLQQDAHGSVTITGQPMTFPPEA
The experiment in a line: ELISA on recombinant CD276 polypeptide with four Ig-like extracellular domains (FIG. 28). On the procedure:
Clones #9 and #10, two VH binders, bound to a CD276 polypeptide with EC₅₀ values of 8.1 and 1.2 nM, respectively, as tested by ELISA. […] The molecular weight of these two clones were validated by mass spectrum. The binding kinetics of clone #9 and #10 to the 4Ig CD276 polypeptide with both his tag and Fc tag were measured by surface plasmon resonance. […] See, FIGS. 28-32.

For assay [3], the target named is T3, 4Ig CD276 polypeptide with Fc tag (human, UniProt Q5ZPR3 29-466).
T3 construct: extracellular domain; SPR antigen; also called 4Ig CD276-Fc; not shown: Fc tag
T3 sequence (looked up): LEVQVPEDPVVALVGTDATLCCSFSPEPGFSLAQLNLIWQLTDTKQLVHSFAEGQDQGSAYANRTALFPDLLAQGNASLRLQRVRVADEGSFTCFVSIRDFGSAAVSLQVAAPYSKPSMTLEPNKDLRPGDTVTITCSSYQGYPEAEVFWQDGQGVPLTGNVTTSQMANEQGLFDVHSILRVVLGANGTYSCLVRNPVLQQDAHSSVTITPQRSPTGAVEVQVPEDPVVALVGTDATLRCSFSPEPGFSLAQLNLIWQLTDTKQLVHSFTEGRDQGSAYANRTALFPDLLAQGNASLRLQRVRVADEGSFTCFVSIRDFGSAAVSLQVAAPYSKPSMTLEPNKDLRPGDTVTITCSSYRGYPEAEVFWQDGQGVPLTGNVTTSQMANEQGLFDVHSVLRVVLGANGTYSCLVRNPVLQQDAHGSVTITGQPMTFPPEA
The experiment in a line: SPR, panel CD276-Fc; sensorgrams with fits, response up to about 15 RU; which partner is on the chip is not stated. On the technique in general: Surface plasmon resonance follows binding to a sensor surface in real time, without labels.

In assay [4] the target is T4, 4Ig CD276 polypeptide with his tag (human, UniProt Q5ZPR3 29-466).
T4 construct: extracellular domain; SPR antigen; also called 4Ig CD276-his; not shown: his tag
T4 sequence (looked up): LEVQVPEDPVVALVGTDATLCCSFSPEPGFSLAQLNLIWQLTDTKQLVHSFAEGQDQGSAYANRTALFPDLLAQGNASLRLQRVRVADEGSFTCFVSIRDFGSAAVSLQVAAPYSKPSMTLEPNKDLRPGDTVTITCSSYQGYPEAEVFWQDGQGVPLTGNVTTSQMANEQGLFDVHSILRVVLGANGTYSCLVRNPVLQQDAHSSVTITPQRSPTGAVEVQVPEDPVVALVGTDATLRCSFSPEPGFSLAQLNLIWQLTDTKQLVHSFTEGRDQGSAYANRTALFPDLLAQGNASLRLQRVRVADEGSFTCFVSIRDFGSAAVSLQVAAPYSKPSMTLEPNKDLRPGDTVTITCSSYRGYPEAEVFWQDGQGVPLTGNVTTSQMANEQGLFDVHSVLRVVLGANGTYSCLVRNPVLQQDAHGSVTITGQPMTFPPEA
Briefly: SPR, panel CD276-His; sensorgrams with fits, response up to about 18 RU; which partner is on the chip is not stated.

Assay [5] deals with T3, 4Ig CD276 polypeptide with Fc tag. Briefly: SPR, panel CD276-Fc; sensorgrams with fits, response up to about 11 RU; which partner is on the chip is not stated.
The target in assay [6] is T4, 4Ig CD276 polypeptide with his tag. Briefly: SPR, panel CD276-His; sensorgrams with fits, response up to about 12 RU; which partner is on the chip is not stated.

B1: Clone #8 (ab8) (Fab, V domains shown)
VH: QVQLVESGGGLVKPGGSLRLSCAASGFTFSDYYMSWIRQAPGKGLEWVSYISSSGSTIYYADSVKGRFTISRDNAKNSLYLQMNSLRAEDTAVYYCARDAPTSGWKWFAPDYWGQGALVTVSS
VL: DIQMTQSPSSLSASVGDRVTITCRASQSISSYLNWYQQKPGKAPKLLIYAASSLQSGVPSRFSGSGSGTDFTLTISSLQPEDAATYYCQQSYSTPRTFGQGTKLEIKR
notes: also called #8 (Fab)
Take B1: the EC50 (commonly the concentration needed to bring the measured effect to its halfway point) in assay [1] turned out to be 4 nM.

B2: Clone #3 (ab3) (Fab, V domains shown)
VH: QVQLVESGGGLVKPGGSLRLSCAASGFTFSDYYMSWIRQAPGKGLEWVSYISSSGSTIYYADSVKGRFTISRDNAKNSLYLQMNSLRAEDTAVYYCARRGGSYYARGAFDIWGQGTMVTVSS
VL: DIQMTQSPSSLSASVGDRVTITCRASQSISSYLNWYQQKPGKAPKLLIYAASSLQSGVPSRFSGSGSGTDFTLTISSLQPEDAATYYCQHRSDWPPKFTFGPGTKVDIKR
notes: also called #3 (Fab)
B2 showed a concentration giving a half-maximal response (EC50) in assay [1] of 26 nM.

B3: Clone #5 (ab5) (VHH)
VHH: EVQLVESGGGLVQPGGSLRLSCAASPFPFTIYEMSWVRQASGKALEWIGYINHSGSTNYNPSLKSRVTISRDNSKNTLYLQMNSLRAEDTAMYYCAILAPDYWGQGTLVTVSS
notes: also called #5 (VH domain)
B3 gave a half-maximal effective concentration (EC50) in assay [1] of 1.2 nM.

B4: Clone #2 (ab2) (Fab, V domains shown)
VH: QVQLVESGGGLVKPGGSLRLSCAASGFTFSDYYMSWIRQAPGKGLEWVSYISSSGSTIYYADSVKGRFTISRDNAKNSLYLQMNSLRAEDTAVYYCARRGAMGHHDGFDMWGLGTMVTVSS
VL: DIQMTQSPSSLSASVGDRVTITCRASQSISSYLNWYQQKPGKAPKLLIYAASSLQSGVPSRFSGSGSGTDFTLTISSLQPEDVAVYYCQQRSNWPLYTFGQGTKLEIKR
notes: also called #2 (Fab)
In assay [1], B4 registered a concentration giving a half-maximal response (EC50) of 46 nM.

B5: Clone #1 (ab1) (Fab, V domains shown)
VH: QVQLVESGGGLVKPGGSLRLSCAASGFTFSDYYMSWIRQAPGKGLEWVSYISSSGSTIYYADSVKGRFTISRDNAKNSLYLQMNSLRAEDTAVYYCARGINFGLDIWGQGTTVTVSS
VL: DIQMTQSPSSLSASVGDRVTITCRASQSISSYLNWYQQKPGKAPKLLIYAASSLQSGVPSRFSGSGSGTDFTLTISSLQPEDVGVYYCMQALQTLFGQGTKVDIKR
notes: also called #1 (Fab)
For the molecule B5, a half-maximal effect in assay [1] (EC50) was put at 34 nM.

B6: Clone #4 (ab4) (VHH)
VHH: EVQLVESGGGLVQPGGSLRLSCAASWFDFQDYDMSWVRQAPGKGLEWIGEINHSGSTNYNPSLKSRVTISRDNSKNTLYLQMNSLRAEDTAVYYCAKIGYWGQGTLVTVSS
notes: kind VHH is used for single domain; also called #4 (VH domain)
In assay [1], B6 showed an EC50 of 0.9 nM.

B7: Clone #7 (ab7) (VHH)
VHH: EVQLVESGGGLVQPGGSLRLSCAASGFTFSSYAMSWVRQAPGQGLEWIGEINHSGSTNYNPSLKSRVTISRDNSKNTLYLQMNSLRAEDTAVYYCVHIDYWGQGTLVAVSS
notes: also called #7 (VH domain)
Molecule B7 gave an EC50 in assay [1] of 0.6 nM.

B8: Clone #10 (ab10) (VHH)
VHH: EVQLVESGGGVVQPGRSLRLSCAASGFTFSSYAMHWVRQAPGKGLEWIGEIYHGGSTDYNPSLKSRVTISRDDSTNTLYLQMNSLRAEDTAVYYCTRGGKRLLSVYGVDVWGQGTMVTVSS
notes: also called C7; #10 (VH domain)
Take B8: in assay [2], the EC50 worked out at 1.2 nM. Further, the Kd (as a rule, the concentration at which binding is half-saturated) was determined as 5.2 nM in assay [3] and 7.83 nM in assay [4].

B9: Clone #6 (ab6) (VHH)
VHH: EVQLVESGGGLVQPGGSLRLSCAASGSPFPHYEMSWVRQAPGKGLEWMGWINTNTGKSTYAQGFTGRFTISRDNSKNTLYLQMNSLRAEDTAVYYCARSGYGYYFDYWGQGTLVTVSS
notes: also called #6 (VH domain)
For B9, in assay [1], the EC50 worked out at 10 nM.

B10: Clone #9 (ab9) (VHH)
VHH: EVQLVESGGGVVQPGRSLRLSCAASGFTFSSYAMHWVRQAPGQGLEWVSTIGPRGINTHYADSVKGRFTISRDNSKNTLYLQMNSLRAEDTATYYCARDRVGYNSYGMDVWGQGTMVTVSS
notes: also called A10; #9 (VH domain)
Regarding B10, in assay [2], the EC50 amounted to 8.1 nM. Further, the Kd was 5.3 nM in assay [5] and 6 nM in assay [6].
